In patent US20060062783A1:

Molecular target: T1, Rat PTH (1-84) (rat)
T1 sequence (peptide): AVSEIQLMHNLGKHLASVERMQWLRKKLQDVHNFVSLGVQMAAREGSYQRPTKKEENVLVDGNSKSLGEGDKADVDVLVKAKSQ
Assay: ELISA on coated peptide; B cell supernatant

OD: 0.19 OD450
B1: anti-PTH mAb 168 (antibody, human IgG2, V domains shown)
VH: EVQLVQSGAEVKKPGESLKISCKGSRYIFTNYWIGWVRQMPGKGLEWMGIIYPGDSDTRYSPSFQGQVTISADMSISTAYLQWSSLKASDTAMYYCARQGDYVWGSFDSWGQGTLVTVSS
VL: DIVMTQTPLSLSVTPGQPASISCKSSQSLLDSDGKTYLYWYLQKPGQPPQLLIYEVSNRFSGVPDRFSGSGSGTDFTLKISRVEAEDVGVYYCMQSIQLWTFGQGTKVEIK
